2 molecules from publication PMC8760232, “Is reduced ferredoxin the physiological electron donor for MetVF-type methylenetetrahydrofolate reductases in acetogenesis? A hypothesis” (International Microbiology, 2021) can be followed below.

In data set [1] the target is MetVF heterodimer of the methylene-tetrahydrofolate reductase (MTHFR) from Clostridium ljungdahlii (Clostridium ljungdahlii (endogenous in C. ljungdahlii)). The experiment in a line: SEC; analytical gel filtration of the purified MTHFR on Superdex 200 Increase, column calibrated with high- and low-molecular weight kits; dimer of MetVF heterodimers. Background: Size exclusion chromatography separates by hydrodynamic size, large species first.

Substrate in the data set “purified protein”: Nc1nc2c(c(=O)[nH]1)N1CN(c3ccc(C(=O)N[C@@H](CCC(=O)O)C(=O)O)cc3)C[C@H]1CN2
In words: purified protein. The data set is classed as biochemical, Clostridium ljungdahlii. The settings on record: reduced ferredoxin as electron donor, 50 mM NaPi, 2 mM DTE, pH 7, 37 °C, methylene-THF made from formaldehyde and THF.

Take “MetVF heterodimer of the methylene-tetrahydrofolate reductase (MTHFR) from Clostridium ljungdahlii (complex)”: the stoichiometry N in data set [1] was 2.

B1: MetVF-type methylene-THF reductase (MTHFR) of C. ljungdahlii (Clostridium ljungdahlii DSM 13528) (protein)
chain: MSLLKEAFEKGEFAITAEMAPPKGTDLSHLIECAKKIKGRVQGVNVTDFQSATLKATSLATCKVLKDAGLEPVFQITGRDRNRIAIQGELLSAGVFEIENVLALTGDYTATGDHPGAKPVYDLDSVGILQVASILNGGKDMGGTDLKGKPDFFLGACVTPRYDPLELQVIKMKKKIKAGAKFFQTQAVYDMETLKKFKEETKAQGVDAKVMVGIIPLKSAGMAKYMNKNVPGIFVPDELIDRMKNAEDKVQEGIKIAGEFIKAVKESGLCDGVHIMAIGAEENVPLILDEAGL
notes: native enzyme purified from C. ljungdahlii cytoplasm, untagged; (MetVF)2 dimer of heterodimers, ~106 kDa native; MetF 33-35 kDa, MetV 23 kDa; FMN and 4Fe-4S clusters; with Methylene-tetrahydrofolate reductase C-terminal-like domain-containing protein
For B1, the K0.5 in the data set “purified protein” amounted to 70 µM.

By stoichiometry N is commonly meant the number of molecules, sites or subunits per partner or assembly.
